Data on four variants can be found in IntAct's records for PubMed 17299042.

Sequences and labels used below:
B1: Protein BMH2 (Saccharomyces cerevisiae), P34730 (parent)
chain: MSQTREDSVYLAKLAEQAERYEEMVENMKAVASSGQELSVEERNLLSVAYKNVIGARRASWRIVSSIEQKEESKEKSEHQVELIRSYRSKIETELTKISDDILSVLDSHLIPSATTGESKVFYYKMKGDYHRYLAEFSSGDAREKATNSSLEAYKTASEIATTELPPTHPIRLGLALNFSVFYYEIQNSPDKACHLAKQAFDDAIAELDTLSEESYKDSTLIMQLLRDNLTLWTSDISESGQEDQQQQQQQQQQQQQQQQQAPAEQTQGEPTK

The test covers variants of B1. To be noted: with rad53_yeast RAD53, P22216.
Chain of rad53_yeast RAD53, P22216 (P22216 whole entry): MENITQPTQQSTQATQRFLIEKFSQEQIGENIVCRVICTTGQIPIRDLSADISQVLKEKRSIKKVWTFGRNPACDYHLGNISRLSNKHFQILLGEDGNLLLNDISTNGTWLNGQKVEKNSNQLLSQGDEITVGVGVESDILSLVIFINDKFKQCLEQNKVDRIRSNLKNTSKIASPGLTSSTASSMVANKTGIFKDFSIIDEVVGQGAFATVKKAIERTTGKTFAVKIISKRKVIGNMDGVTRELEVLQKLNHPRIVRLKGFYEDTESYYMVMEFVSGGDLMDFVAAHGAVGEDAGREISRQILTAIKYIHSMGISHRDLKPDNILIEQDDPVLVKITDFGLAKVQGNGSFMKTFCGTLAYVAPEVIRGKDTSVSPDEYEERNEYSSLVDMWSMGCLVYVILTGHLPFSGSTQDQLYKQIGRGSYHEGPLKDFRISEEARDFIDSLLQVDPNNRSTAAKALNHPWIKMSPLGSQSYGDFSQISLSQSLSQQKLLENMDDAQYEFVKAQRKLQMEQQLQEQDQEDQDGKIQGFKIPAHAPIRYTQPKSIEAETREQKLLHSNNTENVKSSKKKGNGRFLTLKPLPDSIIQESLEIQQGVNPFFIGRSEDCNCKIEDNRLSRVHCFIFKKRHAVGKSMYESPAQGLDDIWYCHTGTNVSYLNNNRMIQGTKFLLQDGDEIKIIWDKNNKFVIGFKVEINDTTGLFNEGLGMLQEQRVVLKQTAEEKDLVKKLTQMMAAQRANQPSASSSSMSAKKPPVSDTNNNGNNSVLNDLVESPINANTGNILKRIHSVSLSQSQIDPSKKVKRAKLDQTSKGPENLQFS
Regarding L225Q, the “effect of a mutation on the interaction” value was “disrupting interaction strength”.

Regarding E185D, the “effect of a mutation on the interaction” value is on record as “disrupting interaction strength”.

With K51L, the “effect of a mutation on the interaction” value is listed as “decreasing interaction strength”.

With K51R, the “effect of a mutation on the interaction” value is “decreasing interaction strength”.
